Experimental findings from patent US20220213216A1 (SOUND BIOPHARMACEUTICALS, published 2022) are described below.

In experiment [1] the target is T1, human Her2 with an Fc tag (AcroBiosystem, catalog number HE2-H5253) (human, UniProt P04626 23-652).
T1 construct: extracellular domain; Bought protein, loaded on Protein A biosensors; also called Her2 antigen; extracellular region of the Her2 protein; not shown: Fc tag of the bought protein, not described
Kind of experiment: BLI (Octet QKe), Her2-Fc on Protein A biosensors, 1:1 fit. Here is the method: (§1) Affinity assay: The OctetQKe instrument (Pall Life Sciences) was used to determine the affinity of the anti-Her2 antibody to the extracellular region of the Her2 protein. Briefly, human Her2 with an Fc tag in PBST (AcroBiosystem, catalog number HE2-H5253) was loaded onto the surface of ProteinA Capture Biosensors (ProA). Immobilization level was set at […]. Then a 60-second biosensor baseline step was performed, and the antigen/antibody association was analyzed for 180 seconds on the biosensor to test the antibody/antigen. The test molecules were then applied at a two-fold concentration gradient. The data analysis software version 8.2 (PALL/ForteBio) was used to evaluate the Octet data, and the full-fit 1:1 modal was used to determine the Kd value.
(§2) In order to detect the binding ability of the antibodies to Her2 antigen, biofilm interference technology (BLI) was used to analyze the interaction between the antibodies and Her2 antigen.

Experiment [2] deals with T1, human Her2 with an Fc tag …. Kind of experiment: BLI (OctetQKe); Fc-tagged human Her2 loaded on Protein A biosensors, antibody in two-fold dilutions, 1:1 fit. As for the experimental part: as §1
The target is the same in experiment [3]. Kind of experiment: BLI (OctetQKe); Fc-tagged human Her2 loaded on Protein A biosensors, antibody in two-fold dilutions, 1:1 fit; column head Kdis. As for the experimental part: as §1
The target is the same in experiment [4]. Briefly: BLI (Octet QKe), Her2-Fc on Protein A biosensors, 1:1 fit; single-site bivalent Bi-Bs. As for the experimental part:
as §1, §2

Experiment [5] has the same target. Kind of experiment: BLI (Octet QKe), Her2-Fc on Protein A biosensors, 1:1 fit; Bp-Bs with dual Her2 binding sites. As for the experimental part:
as §1, §2

B1: anti-Her2-VHH2-Fc (Fc fusion)
chain: QVQLQESGGGSVQAGGSLRLSCRASGFTFSSYAMSWVRQPPGKELEWVSAIWGGGDSQHYADSVKGRFTISRDNAKNTLYLQLNSLKTEDTGMYYCVKDRGPFFSGSKYVLGAADRGQGTQVTVSS
notes: Called a single-site bivalent antibody; 2; not shown: Fc and any linker are not described
As for B1, the Kd in experiment [1] was 3.02 nM. For the same molecule, the kon in experiment [2] was determined as 29800 M⁻¹ s⁻¹. The molecule further gave a koff in experiment [3] of 8.99e-05 s⁻¹.

B2: bivalent anti-Her2 bispecific antibody Bi-Bs (anti-CD3 UCHT1 Fab with anti-Her2 VHH1 on both CL and CH1) (bispecific antibody)
chain 1: EIVLTQSPATLSLSPGERATLSCSASSGVNYMHWYQQKPGQAPRRWIYDTSKLASGVPARFSGSGSGTSYSLTISSLEPEDFAVYYCHQRGGSYTFGGGTKLEIKRKLTVAAPSVFIFPPSDEQLKSGTASVVCLLNNFYPREAKVQWKVDNALQSGNSQESVTEQDSKDSTYSLSSTLTLSKADYEKHKVYACEVTHQGLSSPVTKSFNRGECGSQVQLVQSGGGLVQAGGSLRLSCAASGRTFSSYAMAWFRQAPGKEREFVAAISWSGANIYVADSVKGRFTISRDNAKDTVYLQMNSLKPEDTAVYYCAVKLGFAPVEERQYDYWGQGTQVTVSS
chain 2: QVQLVQSGAEVKKPGASVKVSCKTSGYTFTSNWMHWVRQAPGQGLEWMGEIDPSDSYTNYNQKFKGRVTITVDKSASTAYMELSSLRSEDTAVYYCARGSNPYYYAMDYWGQGTLVTVSSKLASTKGPSVFPLAPSSKSTSGGTAALGCLVKDYFPEPVTVSWNSGALTSGVHTFPAVLQSSGLYSLSSVVTVPSSSLGTQTYICNVNHKPSNTKVDKKVGSGGGGSGGGGSGGGGSQVQLVQSGGGLVQAGGSLRLSCAASGRTFSSYAMAWFRQAPGKEREFVAAISWSGANIYVADSVKGRFTISRDNAKDTVYLQMNSLKPEDTAVYYCAVKLGFAPVEERQYDYWGQGTQVTVSS
notes: 3 is VL-CL-VHH1, so the heavy and light labels are probably swapped in this sentence; Expressed in E. coli and purified on Ni Sepharose
B2: the Kd in experiment [4] came to 3.06 nM. This molecule also registered a kon in experiment [2] of 163000 M⁻¹ s⁻¹. Besides, the koff in experiment [3] stood at 0.000497 s⁻¹.

B3: bispecific antibody Bp-Bs with dual Her2 binding sites (anti-CD3 UCHT1 Fab with anti-Her2 VHH1 on CL and anti-Her2 VHH2 on CH1) (bispecific antibody)
light: EIVLTQSPATLSLSPGERATLSCSASSGVNYMHWYQQKPGQAPRRWIYDTSKLASGVPARFSGSGSGTSYSLTISSLEPEDFAVYYCHQRGGSYTFGGGTKLEIKRKLTVAAPSVFIFPPSDEQLKSGTASVVCLLNNFYPREAKVQWKVDNALQSGNSQESVTEQDSKDSTYSLSSTLTLSKADYEKHKVYACEVTHQGLSSPVTKSFNRGECGSQVQLVQSGGGLVQAGGSLRLSCAASGRTFSSYAMAWFRQAPGKEREFVAAISWSGANIYVADSVKGRFTISRDNAKDTVYLQMNSLKPEDTAVYYCAVKLGFAPVEERQYDYWGQGTQVTVSS
heavy: QVQLVQSGAEVKKPGASVKVSCKTSGYTFTSNWMHWVRQAPGQGLEWMGEIDPSDSYTNYNQKFKGRVTITVDKSASTAYMELSSLRSEDTAVYYCARGSNPYYYAMDYWGQGTLVTVSSASTKGPSVFPLAPSSKSTSGGTAALGCLVKDYFPEPVTVSWNSGALTSGVHTFPAVLQSSGLYSLSSVVTVPSSSLGTQTYICNVNHKPSNTKVDKKVEPKSCDKTHTCAAGGGGSGGGGSGGGGSQVQLQESGGGSVQAGGSLRLSCRASGFTFSSYAMSWVRQPPGKELEWVSAIWGGGDSQHYADSVKGRFTISRDNAKNTLYLQLNSLKTEDTGMYYCVKDRGPFFSGSKYVLGAADRGQGTQVTVSS
notes: VHHs are linked by (GGGGS)3; Expressed in E. coli and purified on Ni Sepharose; About 79 kDa
With B3, in experiment [5], the Kd came out at 0.109 nM. In addition, the kon in experiment [2] came out at 215000 M⁻¹ s⁻¹. In addition, in experiment [3], the koff is 2.33e-05 s⁻¹.

B4: anti-Her2-VHH1-Fc (Fc fusion)
chain: QVQLVQSGGGLVQAGGSLRLSCAASGRTFSSYAMAWFRQAPGKEREFVAAISWSGANIYVADSVKGRFTISRDNAKDTVYLQMNSLKPEDTAVYYCAVKLGFAPVEERQYDYWGQGTQVTVSS
notes: Called a single-site bivalent antibody; 1; also called single-site bivalent antibody anti-Her2 VHH1-Fc; not shown: Fc and any linker are not described
For the molecule B4, the Kd in experiment [1] worked out at 8.85 nM. The molecule also gave a kon in experiment [2] of 298000 M⁻¹ s⁻¹. This molecule yielded a koff in experiment [3] of 0.00263 s⁻¹.
